# Laboratory results taken from the supplement of paper PMC10567573.
# B1: VAMP4 (parent)
# chain: IMALVAAILLLVIIILIVMKYRT
# Variants of: B1
# Assay: protein stability index of a GFP-peptide fusion (GPS, HEK-293T) (PSI 1-6); higher = more stable
# Conditions: c terminus: native
# 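Also: lentivirally expressed fusions sorted by FACS into six bins by GFP to DsRed ratio, PSI derived from sequencing read proportions per bin multiplied by bin number.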
row,Variant,protein stability index
1,IMGLVAAILLLVIIILIVMKYRT [A3G],3.17
2,IMHLVAAILLLVIIILIVMKYRT [A3H],2.85
3,IMILVAAILLLVIIILIVMKYRT [A3I],3.5
4,IMKLVAAILLLVIIILIVMKYRT [A3K],3.28
5,IMLLVAAILLLVIIILIVMKYRT [A3L],3.65
6,IMMLVAAILLLVIIILIVMKYRT [A3M],3.72
7,IMNLVAAILLLVIIILIVMKYRT [A3N],2.46
8,IMPLVAAILLLVIIILIVMKYRT [A3P],2.9
9,IMQLVAAILLLVIIILIVMKYRT [A3Q],3.28
10,IMRLVAAILLLVIIILIVMKYRT [A3R],3.58
11,IMSLVAAILLLVIIILIVMKYRT [A3S],2.86
12,IMTLVAAILLLVIIILIVMKYRT [A3T],3.17
13,IMVLVAAILLLVIIILIVMKYRT [A3V],3.59
14,IMWLVAAILLLVIIILIVMKYRT [A3W],3.47
15,IMYLVAAILLLVIIILIVMKYRT [A3Y],3.55
16,IMAAVAAILLLVIIILIVMKYRT [L4A],3.08
17,IMACVAAILLLVIIILIVMKYRT [L4C],3.07
18,IMADVAAILLLVIIILIVMKYRT [L4D],2.9
19,IMAEVAAILLLVIIILIVMKYRT [L4E],1.57
20,IMAFVAAILLLVIIILIVMKYRT [L4F],3.69
21,IMAGVAAILLLVIIILIVMKYRT [L4G],3.32
22,IMAHVAAILLLVIIILIVMKYRT [L4H],2.36
23,IMAIVAAILLLVIIILIVMKYRT [L4I],3.33
24,IMAKVAAILLLVIIILIVMKYRT [L4K],2.78

row,Variant,protein stability index
1,IMAMVAAILLLVIIILIVMKYRT [L4M],3.29
2,IMANVAAILLLVIIILIVMKYRT [L4N],1.79
3,IMAPVAAILLLVIIILIVMKYRT [L4P],2.83
4,IMAQVAAILLLVIIILIVMKYRT [L4Q],2.19
5,IMARVAAILLLVIIILIVMKYRT [L4R],3.42
6,IMASVAAILLLVIIILIVMKYRT [L4S],3.29
7,IMATVAAILLLVIIILIVMKYRT [L4T],3.19
8,IMAVVAAILLLVIIILIVMKYRT [L4V],3.14
9,IMAWVAAILLLVIIILIVMKYRT [L4W],3.59
10,IMAYVAAILLLVIIILIVMKYRT [L4Y],2.76
11,IMALAAAILLLVIIILIVMKYRT [V5A],3.36
12,IMALCAAILLLVIIILIVMKYRT [V5C],3.37
13,IMALDAAILLLVIIILIVMKYRT [V5D],2.77
14,IMALEAAILLLVIIILIVMKYRT [V5E],2.42
15,IMALFAAILLLVIIILIVMKYRT [V5F],3.17
16,IMALGAAILLLVIIILIVMKYRT [V5G],3.37
17,IMALHAAILLLVIIILIVMKYRT [V5H],2.13
18,IMALIAAILLLVIIILIVMKYRT [V5I],2.97
19,IMALKAAILLLVIIILIVMKYRT [V5K],2.1
20,IMALLAAILLLVIIILIVMKYRT [V5L],3.23
21,IMALMAAILLLVIIILIVMKYRT [V5M],3.81
22,IMALNAAILLLVIIILIVMKYRT [V5N],1.84
23,IMALPAAILLLVIIILIVMKYRT [V5P],2.36
24,IMALQAAILLLVIIILIVMKYRT [V5Q],1.83
